Reference: US20250000945A1, “Suppression of Neurodegeneration with Zinc Transporter Protein 7” (The Regents of the University of California, priority 2021, published 2025)

B1: CatsupV5: V5-tagged wild type Catsup, the Drosophila homolog of ZIP7, expressed under Gal4/UAS control (protein, UniProt Q9V3A4 1-449, looked up)
Protein catecholamines up: MAKQVADYQCSKLQLYQKLALVVILGAVLFSLPALCAGQGNPSFKYSREANENFDPQKAPRAEHHHHHDHDHDHGHHHHGHDHDHDHDHGHDHGHHHHGHDHDHDHDHGHHHHGHDERHTKAKPDLDMSTIWLHSIGSTLLISAAPFVLLYIIPLDNSEAMKPRLKVLLAFASGGLLGDAFLHLIPHATHPHSHGEHGHDHGHDHHHHHDGEEHEHGHSHDMSIGLWVLGGIIAFLSVEKLVRILKGGHGGHGHSHGAPKPKPVPAKKKSSDKEDSGDGDKPAKPAKIKSKKPEAEPEGEVEISGYLNLAADFAHNFTDGLAIGASYLAGNSIGIVTTITILLHEVPHEIGDFAILIKSGCSRRKAMLLQLVTALGALAGTALALLGAGGGDGSAPWVLPFTAGGFIYIATVSVLPELLEESTKLKQSLKEIFALLTGVALMIVIAKFE
modifications: V5 tag
notes: V5-tagged wild type Catsup, the Drosophila homolog of ZIP7, expressed under Gal4/UAS control
B2: ZIP7: zinc transporter protein 7, overexpressed from a transgene; SEQ ID NO:4 (Drosophila), SEQ ID NO:5 (human) (protein, UniProt Q92504 1-469, looked up)
Zinc transporter SLC39A7: MARGLGAPHWVAVGLLTWATLGLLVAGLGGHDDLHDDLQEDFHGHSHRHSHEDFHHGHSHAHGHGHTHESIWHGHTHDHDHGHSHEDLHHGHSHGYSHESLYHRGHGHDHEHSHGGYGESGAPGIKQDLDAVTLWAYALGATVLISAAPFFVLFLIPVESNSPRHRSLLQILLSFASGGLLGDAFLHLIPHALEPHSHHTLEQPGHGHSHSGQGPILSVGLWVLSGIVAFLVVEKFVRHVKGGHGHSHGHGHAHSHTRGSHGHGRQERSTKEKQSSEEEEKETRGVQKRRGGSTVPKDGPVRPQNAEEEKRGLDLRVSGYLNLAADLAHNFTDGLAIGASFRGGRGLGILTTMTVLLHEVPHEVGDFAILVQSGCSKKQAMRLQLLTAVGALAGTACALLTEGGAVGSEIAGGAGPGWVLPFTAGGFIYVATVSVLPELLREASPLQSLLEVLGLLGGVIMMVLIAHLE

Assays:
border cells = assay: Border cell migration in stage 10 egg chambers expressing Catsup RNAi (rescue by co-expressed transgenes); format: in vivo, Drosophila; conditions: co-expressed with Catsup RNAi in border cells
Source text: Border cell clusters are composed of 4-6 migratory cells that surround and carry two non-migratory polar cells. Expression of a Catsup RNAi line in outer, migratory border cells using fruitlessGal4^51 inhibited migration (FIG. 2A). The defect was rescued by co-expression of UAS-CatsupV5 (FIG. 2B). Reduction of Catsup::GFP confirmed the effectiveness of the RNAi (FIGS. 2C, C′ and 2D, D′). Border cell migration was also impaired when Catsup RNAi was driven by c306Gal4 (FIG. 2E), which is expressed in both polar and migratory cells.
ZIP7 resides in the ER membrane and transports Zn^2+ from the ER to the cytosol^64. To test whether the Zn^2+ transporter activity of Catsup was important for border cell migration, we introduced point mutations, H315A and H344A, which replace histidine residues that are required for Zn^2+ transport and are conserved between Catsup, ZIP7 and a more distant family member from Arabidopsis IRT1. […] We generated transgenic flies expressing the mutants under Gal4/UAS control and included a V5 tag so that we could monitor protein abundance and localization. We then co-expressed each of these RNAi-resistant transgenes with CatsupRNAi and evaluated protein expression and border cell migration (FIGS. 5B-5E). […] All the proteins were stably expressed and correctly localized to the ER (FIGS. 5B-5E), therefore the lack of rescue was likely a consequence of impaired transporter activity rather than impaired expression, localization, or another function. […] From these experiments, we conclude that Zn^2+ transport is an essential function of Catsup in promoting ERAD.
Catsup mutant fly was generated by ethyl methanesulfonate (EMS) mutagen^37. The mutation results in glycine(G) to aspartic acid(D) replacement at amino acid 178. The FLP/FRT system was used to generate the Catsup^G178D homozygous mutant clones by combining FRT40A-Catsup^G178D with hsFLP12,yw;ubi:GFPnls, FRT40A or hsFLP12,yw;ubi:RFPnls, FRT40A/(CyO). Catsup::GFP expression pattern visualized by the line from VDRC 318542 in the fTRG stocks library. The UAS-CatsupRNAi transgenic line is from VDRC 100095 P{KK103630}VIE-260B. Wild type rescue w[*]; sna[Sco]/CyO; P{w[+mCJ=UAS-Catsup. V5}6 Bloomington 63229. Additional transgenic Drosophila stocks used: UAS-wRNAi/Cyo is a lab stock, UAS-PleRNAi Bloomington 25796 y[1] v[1]; P{y[+t7.7] v[+t1.8]=TRiP.JF01813}attP2, UAS-Ple is Bloomington 37539 w[*]; P{w[+mC]=UAS-ple.T}331f2, O-fucosyltransferasel Bloomington 9376 P{UAS-O-fut.}]1.1, UAS-Notch.Intracellular.Domain on third chromosome was a gift from Artavanis-Tsakonas lab^71. The ER stress marker UAS-Xbp1-EGFP.HG Bloomington 60731 w[*]; P{w[+mC]=UAS-Xbp1.EGFP.HG}3, UAS-HSC70-3 Bloomington 5843 w[126]; P{w[+mC]=UAS-Hsc70-3. WT}B. Catsup point mutations were cloned into vector pUASt-attb with forward primer ctctgaatagggaattggg[…] (SEQ ID NO:1) and reverse primer ccgcagatctgttaacgtca[…] (SEQ ID NO:2). The vector was injected to attp2 flies y1 w67c23; P{CaryP}attP2 by BestGene Inc.
When generating UAS-Catsup-point-mutations, we designed the construct so it cannot be targeted by the CatsupRNAi sequences by substituting redundant codons for the same amino acids within the region targeted by the RNAi. The RNAi resistant sequence is below with nucleic acid substitutions in lower case:
Point mutations were designed by changing codons at the following site CatsupH183A (CAC to GCC), CatsupH187A (CAT to GCT), CatsupH315A (CAT to GCT), CatsupH344A ([…]). […]

[1] = test system: follicle cells / border cells; assay: ER stress markers (Xbp1::EGFP, PDI) in cells lacking Catsup; format: in vivo, Drosophila; conditions: mosaic clones expressing CatsupRNAi
Source text: To test if Catsup knockdown induces the UPR in follicle cells, we compared expression of the ER stress marker Xbp1::EGFP^59 in mosaic border cell clusters composed of heterozygous Catsup^+/− and homozygous Catsup^−/− mutant cells. We found high levels of Xbp1 in Catsup^−/− but not Catsup^+/− border cells (FIG. 4A-A″). […] Accumulation of XBP1 and PDI are indicative of induction of an adaptive UPR^60. This effect was rescued by co-expression of CatsupV5 (FIG. 4C-C″).
(§1) Catsup mutant fly was generated by ethyl methanesulfonate (EMS) mutagen^37. The mutation results in glycine(G) to aspartic acid(D) replacement at amino acid 178. The FLP/FRT system was used to generate the Catsup^G178D homozygous mutant clones by combining FRT40A-Catsup^G178D with hsFLP12,yw;ubi:GFPnls, FRT40A or hsFLP12,yw;ubi:RFPnls, FRT40A/(CyO). Catsup::GFP expression pattern visualized by the line from VDRC 318542 in the fTRG stocks library. The UAS-CatsupRNAi transgenic line is from VDRC 100095 P{KK103630}VIE-260B. Wild type rescue w[*]; sna[Sco]/CyO; P{w[+mCJ=UAS-Catsup. V5}6 Bloomington 63229. […]

[2] = test system: border cells expressing Rh1^G69D; assay: ER stress (Xbp1::EGFP) and migration of border cells expressing misfolded rhodopsin Rh1^G69D; format: in vivo, Drosophila; conditions: overexpression
Source text: To test whether ER stress impairs border cell migration, we expressed a misfolded rhodopsin protein Rh1^G69D, known to induce ER stress^61 As expected, Rh1^G69D induced Xbp1 expression in border cells (FIG. 4D insert). […] Since loss of Catsup caused ER stress, we wondered if Catsup over-expression might suppress ER stress.
as §1, with “63229. Additional transgenic Drosophila stocks used: UAS-wRNAi/Cyo is a lab stock, UAS-PleRNAi Bloomington 25796 y[1] v[1]; P{y[+t7.7] v[+t1.8]=TRiP.JF01813}attP2, UAS-Ple is Bloomington 37539 w[*]; P{w[+mC]=UAS-ple.T}331f2, O-fucosyltransferasel Bloomington 9376 P{UAS-O-fut.}]1.1, UAS-Notch.Intracellular.Domain on third chromosome was a gift from Artavanis-Tsakonas lab^71.” for “63229.”

[3] = test system: misfolded rhodopsin protein Rh1^G69D; assay: Rh1^G69D protein abundance in cells over-expressing Catsup (ERAD); format: in vivo, Drosophila; conditions: border cells, overexpression
Sequence of misfolded rhodopsin protein Rh1^G69D (P06002 whole entry G69D): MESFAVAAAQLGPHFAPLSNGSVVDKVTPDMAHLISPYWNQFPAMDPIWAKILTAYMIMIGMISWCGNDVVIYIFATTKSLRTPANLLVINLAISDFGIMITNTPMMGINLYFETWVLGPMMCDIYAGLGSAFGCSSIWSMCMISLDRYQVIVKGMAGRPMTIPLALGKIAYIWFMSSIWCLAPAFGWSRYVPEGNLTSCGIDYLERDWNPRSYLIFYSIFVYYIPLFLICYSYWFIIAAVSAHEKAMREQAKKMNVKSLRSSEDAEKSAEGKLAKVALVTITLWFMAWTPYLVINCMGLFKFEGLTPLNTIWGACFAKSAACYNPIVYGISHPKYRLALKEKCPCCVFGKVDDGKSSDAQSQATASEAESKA
Protocol: The UPR reinstates ER homeostasis by upregulating the protein-folding capacity of the ER and increasing its protein-degradation capacity^62. During ERAD, misfolded proteins are extruded from the ER, ubiquitinated, and degraded by the proteasome^60. To test whether Catsup overexpression might enhance ERAD, we examined Rh1^G69D protein abundance in cells over-expressing Catsup.
Female flies were fattened with yeast for 2 days at 29° C. Egg chambers were dissected from ovaries of female flies in Schneider's medium with 10% FBS (pH=6.85-6.95) as described previously^72. Freshly dissected egg chambers were fixed in 4% paraformaldehyde and then incubated overnight in 1×PBS with 0.4% triton and the following primary antibodies: mouse anti-PDI (1:200) (ADI-SPA-891-D Enzo Life Sciences, Inc.), chicken anti-GFP (1:200) (ab13970 Abcam plc.), Ple (anti-TH) antibody (a gift from the Craig Montell lab), mouse anti-Notch intracellular domain (1:100) C17.9C6 DSHB, rat Ecadherin antibody DCAD2 (1:50) DSHB, V5 Tag Monoclonal Antibody-Alexa Fluor 555 (2F11F7) Invitrogen, mouse anti-dEGFR (1:2000) E2906 Sigma Aldrich. O-fut1 antibody was used to confirm O-fut1 overexpression, and was a gift from Kenneth D. Irvine lab 73. Secondary antibodies were incubated for 2 hours, together with Hoechst stain for nuclei, and phalloidin stain for F-actin. […]

photoreceptor cells = assay: Rh1G69D-induced photoreceptor cell death (rough eye) in flies; format: in vivo; conditions: flies expressing Rh1G69D, ZIP7 overexpression
Source text: FIGS. 6A-6B. ZIP7 prevents Rh1G69D-induced photoreceptor cell death, which causes a rough eye. (FIG. 6A) Percentage of flies having the Rh1^G69D genotype that develop rough eye in presence and absence of ZIP7 expression. (FIG. 6B) Comparison of eye morphology of flies having the Rh1^G69D genotype in presence and absence of ZIP7 expression.
ZIP7 overexpression prevented photoreceptor cell death in the eyes of flies expressing mutant forms of rhodopsin.

[4] = test system: ubiquitinated proteins / proteasome; assay: Ubiquitinated protein levels (FK2/DNA ratio) in egg chambers with and without MG132; format: in vivo, Drosophila
Protocol: FIGS. 12A-12C. Overexpressing ZIP7 decreases ubiquitinated protein levels. (FIG. 12A) Egg chambers with and without ZIP7 overexpression (OE) were incubated with media for 5 hours. (FIG. 12B) Egg chambers with and without ZIP7 overexpression (OE) were treated with 10 μM MG132 proteasome inhibitor for 5 hours. (FIG. 12C) Comparison of FK2/DNA ratio egg for chambers incubated with media or 10 μM MG132 proteasome inhibitor for 5 hours with or without ZIP7 overexpression.
Egg chambers with and without ZIP7 overexpression (OE) were incubated with media in the presence or absence of the MG132 proteasome inhibitor (10 μM) for 5 hours (FIGS. 12A and 12B). Overexpressing ZIP7 decreased ubiquitinated protein levels and the FK2/DNA ratio (FIG. 12C).

Vap33 = assay: Neurodegeneration due to expression of Vap33 in flies; format: in vivo; conditions: ZIP7 overexpression
Source text: FIG. 9. ZIP7 overexpression suppresses neurodegeneration due to expression of Vap33.
(§2) Overexpression of ZIP7 may mitigate ER stress and neuronal cell death in protein aggregation diseases (FIG. 7). We screened aggregate prone proteins for ZIP7 rescue (FIG. 8). ZIP7 overexpression suppressed neurodegeneration due to expression of Vap33 (FIG. 9) and amyloid β42 (FIG. 10).

amyloid β42 = assay: Neurodegeneration due to expression of amyloid β42 in flies; format: in vivo; conditions: ZIP7 overexpression
Source text: FIG. 10. ZIP7 overexpression suppresses neurodegeneration due to expression of amyloid β42.
as §2

[5] = egg chambers, media with or without 10 μM MG132, 5 hours

Molecule	rescue of border cell migration defect (border cells)	rescue of ER stress (Xbp1 and PDI accumulation) [1]	Rh1^G69D-induced Xbp1 expression [2]	border cell migration blocked by Rh1^G69D [2]	Rh1^G69D protein abundance [3]	photoreceptor cell death (rough eye) (photoreceptor cells)	FK2/DNA ratio [4, 5]	ubiquitinated protein levels [4, 5]	activity of the proteasome ([4]; even in the presence of a proteasome inhibitor)	neurodegeneration due to expression of Vap33 (Vap33)	neurodegeneration due to expression of amyloid β42 (amyloid β42)
B1	rescued	rescued	rescued	rescued	reduced Rh1^G69D protein to an undetectable level	–	–	–	–	–	–
B2	–	–	–	–	–	prevented	decreased	decreased	enhances	suppressed	suppressed
